From the supplement of paper PMC9112550, “Optimization of the antimicrobial peptide Bac7 by deep mutational scanning” (BMC Biology, 2022)

System: Escherichia coli TOP10
Test: shrunken log2 fold change of peptide-encoding DNA abundance (4.5 h post-induction vs induction); higher = less antimicrobial activity (less host growth inhibition)
Conditions: time post-induction: 4.5 h; library: site-saturation at positions 5, 18, 19, 20
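Also: peptides expressed intracellularly from a pBAD plasmid library in pooled LB shake-flask culture, induced with 0.3% L-arabinose, DNA abundance read by NGS, three biological replicates, DESeq2 with apeglm shrinkage.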

Sequence	shrunken log2 fold change
RRIRARPPRLPRPRPRPYNTPRP	-0.606
RRIRARPPRLPRPRPRPYQHPRP	-0.272
RRIRARPPRLPRPRPRPYQSPRP	-0.0285
RRIRARPPRLPRPRPRPYRVPRP	-0.211
RRIRARPPRLPRPRPRPYSGPRP	-0.0581
RRIRARPPRLPRPRPRPYWKPRP	-0.0819
RRIRARPPRLPRPRPRPYYEPRP	-1.02
RRIRARPPRLPRPRPRPYYSPRP	-0.173
RRIRARPPRLPRPRPRPYYWPRP	-0.77
RRIRCRPPRLPRPRPRPAAMPRP	0.281
RRIRCRPPRLPRPRPRPADYPRP	-0.263
RRIRCRPPRLPRPRPRPAEKPRP	-0.0214
RRIRCRPPRLPRPRPRPAHGPRP	0.23
RRIRCRPPRLPRPRPRPAHTPRP	-0.0293
RRIRCRPPRLPRPRPRPAIKPRP	-0.738
RRIRCRPPRLPRPRPRPALIPRP	-0.0928
RRIRCRPPRLPRPRPRPANDPRP	-0.799
RRIRCRPPRLPRPRPRPANVPRP	-0.0934
RRIRCRPPRLPRPRPRPAPIPRP	1.74
RRIRCRPPRLPRPRPRPASIPRP	-0.612

Sequence	shrunken log2 fold change
RRIRCRPPRLPRPRPRPATCPRP	-0.0745
RRIRCRPPRLPRPRPRPATGPRP	0.201
RRIRCRPPRLPRPRPRPATWPRP	-0.104
RRIRCRPPRLPRPRPRPAVNPRP	-0.386
RRIRCRPPRLPRPRPRPAVRPRP	0.0848
RRIRCRPPRLPRPRPRPAWNPRP	0.035
RRIRCRPPRLPRPRPRPAWQPRP	0.359
RRIRCRPPRLPRPRPRPAYAPRP	0.00565
RRIRCRPPRLPRPRPRPAYEPRP	-0.28
RRIRCRPPRLPRPRPRPAYGPRP	0.13
RRIRCRPPRLPRPRPRPAYSPRP	-0.97
RRIRCRPPRLPRPRPRPCADPRP	-0.0836
RRIRCRPPRLPRPRPRPCAWPRP	0.0576
RRIRCRPPRLPRPRPRPCCCPRP	-0.224
RRIRCRPPRLPRPRPRPCEVPRP	-0.251
RRIRCRPPRLPRPRPRPCFEPRP	-0.00928
RRIRCRPPRLPRPRPRPCGEPRP	0.218
RRIRCRPPRLPRPRPRPCGIPRP	0.153
RRIRCRPPRLPRPRPRPCHEPRP	-0.0566
RRIRCRPPRLPRPRPRPCHMPRP	-0.443

Sequence	shrunken log2 fold change
RRIRCRPPRLPRPRPRPCIDPRP	-0.385
RRIRCRPPRLPRPRPRPCINPRP	-0.0741
RRIRCRPPRLPRPRPRPCKCPRP	-0.0236
RRIRCRPPRLPRPRPRPCKFPRP	-0.431
RRIRCRPPRLPRPRPRPCLFPRP	-0.333
RRIRCRPPRLPRPRPRPCMRPRP	0.0312
RRIRCRPPRLPRPRPRPCPGPRP	-0.191
RRIRCRPPRLPRPRPRPCPPPRP	-0.0764
RRIRCRPPRLPRPRPRPCQWPRP	-0.00783
RRIRCRPPRLPRPRPRPCREPRP	-0.291
RRIRCRPPRLPRPRPRPCSIPRP	-0.143
RRIRCRPPRLPRPRPRPCTQPRP	-0.887
RRIRCRPPRLPRPRPRPCVPPRP	-0.49
RRIRCRPPRLPRPRPRPCVWPRP	-0.013
RRIRCRPPRLPRPRPRPCWCPRP	-0.203
RRIRCRPPRLPRPRPRPCWDPRP	-0.294
RRIRCRPPRLPRPRPRPCYHPRP	-0.79
RRIRCRPPRLPRPRPRPCYSPRP	-0.379
RRIRCRPPRLPRPRPRPDANPRP	-0.00199
RRIRCRPPRLPRPRPRPDCWPRP	0.23
